Data from article PMC7015052, “Transferrin plays a central role in coagulation balance by interacting with clotting factors” (Cell Research, 2019).
Values belong to the molecule of their own block, whether it stands above or below them.

Assays:
human α-thrombin (human) = human α-thrombin (human) (UniProt P00734)
apo-transferrin [1] = target: T1, apo-transferrin (human, UniProt P02787 20-698); assay: SPR; BIAcore 2000; apo-transferrin or holo-transferrin immobilised on a CM5 chip (~2000 RU); serial concentrations of thrombin, FXIIa, fibrinogen, AT, prothrombin or FXII in Tris–HCl buffer (20 mM, pH 7.4) at 10 μL/min
T1 construct: transferrin (serotransferrin), human, iron-free state; Several paragraphs and legends say only 'transferrin' where the text says apo-transferrin for the same panels; rows told of 'transferrin' alone are tied to this molecule; also called Tf; TRF; source: bought: Sigma (purity greater than 98%)

apo-transferrin [2] = target: T1, apo-transferrin; assay: SPR; settings: plateau of the association phase, read off a plot
apo-transferrin [3] = target: T1, apo-transferrin; assay: SPR; CM5 chip coupled with 100 RU of transferrin; binding molar ratio from the saturation RU of the flowing phase and the RU of the immobilised phase; settings: for stoichiometry N: both partners purified
apo-transferrin [4] = target: T1, apo-transferrin; assay: SPR; transferrin with synthetic peptides (TH16, FX18, RCL19 and their scrambled controls); settings: both partners purified

- enhancement of the enzymatic activity of thrombin (chromogenic substrate) by transferrin at 0.2, 1 and 5 μM (human α-thrombin (human)): 1.8 fold
- increase of fibrinopeptide A released from fibrinogen by thrombin after 30 min with transferrin at 0.2, 1 and 5 μM (RP-HPLC) (human α-thrombin (human)): 1.2 fold
- increase of fibrinopeptide B released from fibrinogen by thrombin after 30 min with transferrin at 0.2, 1 and 5 μM (RP-HPLC) (human α-thrombin (human)): 4.2 fold
Molecule: apo-transferrin (from UniProt P02787 20-698) (natural protein)

- Kd (apo-transferrin [1]): 40 nM
- koff (apo-transferrin [1]): 0.0012 s⁻¹
- kon (apo-transferrin [1]): 30000 M⁻¹ s⁻¹
Molecule: FXII (natural protein)

- response (apo-transferrin [2]; 25 nM trace, parent: est. 9): 2.5 RU
- response (apo-transferrin [2]; 50 nM trace, parent: est. 14): 5.5 RU
Molecule: wild-type thrombin (from UniProt P00734) R117A; R122A

- Kd (apo-transferrin [1]): 7.7 nM
- stoichiometry N (transferrin per thrombin (molar ratio)) (apo-transferrin [3]): 1
Molecule: human α-thrombin (from UniProt P00734 364-622) (enzyme)

- Kd (apo-transferrin [4]): 143 nM
- koff (apo-transferrin [4]): 0.0004 s⁻¹
- kon (apo-transferrin [4]): 2800 M⁻¹ s⁻¹
Molecule: RRNHSCEPCQTLAVRSYR (source: synthetic peptide) [FX18]

- stoichiometry N (apo-transferrin [3]): 4 apo-transferrin per fibrinogen (molar ratio)
B1: fibrinogen (natural protein)
chain 1: ADSGEGDFLAEGGGVRGPRVVERHQSACKDSDWPFCSDEDWNYKCPSGCRMKGLIDEVNQDFTNRINKLKNSLFEYQKNNKDSHSLTTNIMEILRGDFSSANNRDNTYNRVSEDLRSRIEVLKRKVIEKVQHIQLLQKNVRAQLVDMKRLEVDIDIKIRSCRGSCSRALAREVDLKDYEDQQKQLEQVIAKDLLPSRDRQHLPLIKMKPVPDLVPGNFKSQLQKVPPEWKALTDMPQMRMELERPGGNEITRGGSTSYGTGSETESPRNPSSAGSWNSGSSGPGSTGNRNPGSSGTGGTATWKPGSSGPGSTGSWNSGSSGTGSTGNQNPGSPRPGSTGTWNPGSSERGSAGHWTSESSVSGSTGQWHSESGSFRPDSPGSGNARPNNPDWGTFEEVSGNVSPGTRREYHTEKLVTSKGDKELRTGKEKVTSGSTTTTRRSCSKTVTKTVIGPDGHKEVTKEVVTSEDGSDCPEAMDLGTLSGIGTLDGFRHRHPDEAAFFDTASTGKTFPGFFSPMLGEFVSETESRGSESGIFTNTKESSSHHPGIAEFPSRGKSSSYSKQFTSSTSYNRGDSTFESKSYKMADEAGSEADHEGTHSTKRGHAKSRPVRGIHTSPLGKPSLSP
chain 2: QGVNDNEEGFFSARGHRPLDKKREEAPSLRPAPPPISGGGYRARPAKAAATQKKVERKAPDAGGCLHADPDLGVLCPTGCQLQEALLQQERPIRNSVDELNNNVEAVSQTSSSSFQYMYLLKDLWQKRQKQVKDNENVVNEYSSELEKHQLYIDETVNSNIPTNLRVLRSILENLRSKIQKLESDVSAQMEYCRTPCTVSCNIPVVSGKECEEIIRKGGETSEMYLIQPDSSVKPYRVYCDMNTENGGWTVIQNRQDGSVDFGRKWDPYKQGFGNVATNTDGKNYCGLPGEYWLGNDKISQLTRMGPTELLIEMEDWKGDKVKAHYGGFTVQNEANKYQISVNKYRGTAGNALMDGASQLMGENRTMTIHNGMFFSTYDRDNDGWLTSDPRKQCSKEDGGGWWYNRCHAANPNGRYYWGGQYTWDMAKHGTDDGVVWMNWKGSWYSMRKMSMKIRPFFPQQ
chain 3: YVATRDNCCILDERFGSYCPTTCGIADFLSTYQTKVDKDLQSLEDILHQVENKTSEVKQLIKAIQLTYNPDESSKPNMIDAATLKSRKMLEEIMKYEASILTHDSSIRYLQEIYNSNNQKIVNLKEKVAQLEAQCQEPCKDTVQIHDITGKDCQDIANKGAKQSGLYFIKPLKANQQFLVYCEIDGSGNGWTVFQKRLDGSVDFKKNWIQYKEGFGHLSPTGTTEFWLGNEKIHLISTQSAIPYALRVELEDWNGRTSTADYAMFKVGPEADKYRLTYAYFAGGDAGDAFDGFDFGDDPSDKFFTSHNGMQFSTWDNDNDKFEGNCAEQDGSGWWMNKCHAGHLNGVYYQGGTYSKASTPNGYDNGIIWATWKTRWYSMKKTTMKIIPFNRLTIGEGQQHHLGGAKQAGDV
notes: fibrinogen alpha chain; fibrinogen beta chain; fibrinogen gamma chain; the SPR and native gel methods say only 'fibrinogen'; also called factor I; source: bought: Cayman (16088); copies: + +

- Kd (apo-transferrin [4]): 97 nM
- koff (apo-transferrin [4]): 0.0003 s⁻¹
- kon (apo-transferrin [4]): 3100 M⁻¹ s⁻¹
Molecule: RIGKHSRTRYERNIEK (source: synthetic peptide) [TH16]

- Kd (apo-transferrin [1]; both partners purified): 13.9 nM
- koff (apo-transferrin [1]; both partners purified): 0.0025 s⁻¹
- kon (apo-transferrin [1]; both partners purified): 180000 M⁻¹ s⁻¹
- stoichiometry N (apo-transferrin [3]): 1 transferrin per FXIIa (molar ratio)
B2: human α-FXIIa (enzyme)
chain 1: IPPWEAPKEHKYKAEEHTVVLTVTGEPCHFPFQYHRQLYHKCTHKGRPGPQPWCATTPNFDQDQRWGYCLEPKKVKDHCSKHSPCQKGGTCVNMPSGPHCLCPQHLTGNHCQKEKCFEPQLLRFFHKNEIWYRTEQAAVARCQCKGPDAHCQRLASQACRTNPCLHGGRCLEVEGHRLCHCPVGYTGAFCDVDTKASCYDGRGLSYRGLARTTLSGAPCQPWASEATYRNVTAEQARNWGLGGHAFCRNPDNDIRPWCFVLNRDRLSWEYCDLAQCQTPTQAAPPTPVSPRLHVPLMPAQPAPPKPQPTTRTPPQSQTPGALPAKREQPPSLTRNGPLSCGQRLRKSLSSMTR
chain 2: VVGGLVALRGAHPYIAALYWGHSFCAGSLIAPCWVLTAAHCLQDRPAPEDLTVVLGQERRNHSCEPCQTLAVRSYRLHEAFSPVSYQHDLALLRLQEDADGSCALLSPYVQPVCLPSGAARPSETTLCQVAGWGHQFEGAEEYASFLQEAQVPFLSLERCSAPDVHGSSILPGMLCAGFLEGGTDACQGDSGGPLVCEDQAAERRLTLQGIISWGSGCGDRNKPGVYTDVAYYLAWIREHTVS
notes: factor XIIa heavy chain, cut product of human factor XII; factor XIIa light chain (protease domain), cut product of human factor XII; also called factor XIIa; source: bought: Enzyme Research Laboratories (HFXIIa 1212a)

- Kd (apo-transferrin [4]): 556 nM
- koff (apo-transferrin [4]): 0.001 s⁻¹
- kon (apo-transferrin [4]): 1800 M⁻¹ s⁻¹
B3: RCL19 (peptide)
peptide: EAAASTAVVIAGRSLNPNR
notes: from the reactive center loop (RCL) of antithrombin; also called synthetic peptide from the RCL of AT; source: synthetic peptide
